Assay results from patent US20100310509A1 (published 2010).
Values belong to the binder of their own block, whether it stands above or below them.

Assays:
[1] = target: OSMR:gp130 receptor complex on A375 melanoma cells (UniProt Q99650 28-979; P40189 23-918, limits assumed); test: cell-based or functional assay
[2] = target: LIFR:gp130 receptor complex on human retinal Müller cells (human, UniProt P42702 45-1097; P40189 23-918); test: cell-based or functional assay
[3] = target: T1, soluble human LIFR (leukemia inhibitory factor receptor) (human, UniProt P42702 45-833); test: ELISA, apparent KD (KD,App), cytokine coated, soluble LIFR titrated (direct)
T1 construct: extracellular domain; Bought; also called soluble LIFR
T1 sequence (looked up): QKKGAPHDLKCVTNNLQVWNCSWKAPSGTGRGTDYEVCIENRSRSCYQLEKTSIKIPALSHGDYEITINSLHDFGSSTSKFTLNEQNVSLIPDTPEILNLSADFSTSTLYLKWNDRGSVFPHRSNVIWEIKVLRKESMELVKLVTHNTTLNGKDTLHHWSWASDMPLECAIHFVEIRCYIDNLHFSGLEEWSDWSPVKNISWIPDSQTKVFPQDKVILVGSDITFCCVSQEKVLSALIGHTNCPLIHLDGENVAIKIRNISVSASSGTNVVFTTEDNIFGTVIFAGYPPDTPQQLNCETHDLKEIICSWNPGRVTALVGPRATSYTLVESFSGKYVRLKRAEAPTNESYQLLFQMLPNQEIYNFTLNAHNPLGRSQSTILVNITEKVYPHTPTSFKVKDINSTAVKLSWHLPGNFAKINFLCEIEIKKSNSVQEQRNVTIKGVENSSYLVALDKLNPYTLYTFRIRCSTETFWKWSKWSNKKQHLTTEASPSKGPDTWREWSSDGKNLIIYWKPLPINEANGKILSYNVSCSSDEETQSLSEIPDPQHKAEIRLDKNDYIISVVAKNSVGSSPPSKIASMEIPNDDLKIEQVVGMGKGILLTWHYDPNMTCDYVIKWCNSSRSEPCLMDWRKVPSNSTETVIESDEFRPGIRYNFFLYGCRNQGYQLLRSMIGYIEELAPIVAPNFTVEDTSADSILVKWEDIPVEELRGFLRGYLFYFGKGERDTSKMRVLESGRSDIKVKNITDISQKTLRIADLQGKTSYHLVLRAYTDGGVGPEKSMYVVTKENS
Procedure: For direct interaction studies, cytokines (LIF, OSM-WT, OSM-M1 or OSM-M2) were immobilized on the 96 well ELISA plate by incubating the wells with 200 μl of 5 nM cytokine solution in PBS, pH 7.4 overnight at 4° C. The wells were then blocked with blocking buffer (4% BSA in PBS) for 1 hour at room temperature. After washing with 250 μl of washing buffer (0.05% Tween-20 in PBS) 3 times, the cytokines were treated with a series of concentrations of soluble human LIFR (Catalog #249-LR-050/CF, R&D Systems, Minneapolis, Minn.) or OSMR (Catalog #4389-OR-050, R&D Systems, Minneapolis, Minn.) in 150 μl of blocking buffer for 2 hours. The wells were then incubated with 150 μl of polyclonal anti-hLIFR (Catalog #AF249-NA, R&D Systems, Minneapolis, Minn.) or anti-hOSMR (Catalog #AF662, R&D Systems, Minneapolis, Minn.) in blocking buffer for 1 hour followed by incubation with 150 μl of HRP conjugated […] antibody (GE Healthcare, Uppsala, Sweden) in blocking buffer for 30 minutes. The wells were then washed 3 times with washing buffer and treated with 100 μl of chromogenic Slow-TMB® HRP substrate (Catalog #34024, Thermo Scientific Fisher, Rockford, Ill.) for 15 minutes. The reaction was then stopped by adding 100 μl of 2M H₂SO₄ and the absorbance of each well at 450 nm was read immediately using a UV detector (iMARK® Microplate Reader, Biorad, Hercules, Calif.). For interactions of higher order, soluble human gp130 (Catalog #671-GP-100, R&D Systems, Minneapolis, Minn.) was immobilized on 96 well ELISA microplates by incubating the wells with 200 μl of 1 nM gp130 solution (in PBS, pH 7.4) overnight at 4° C. The wells were then blocked with 150 μl of blocking buffer (4% BSA in PBS) for 1 hour at room temperature. After washing with 250 μl of washing buffer 3 times, gp130 was treated with saturating amounts of the cytokines (500 nM hLIF, 200 nM OSM-WT, 200 nM OSM-M1 or 200 nM OSM-M2) in a volume of 150 μl of blocking buffer for a period of 2 hours. The cytokine solution was discarded and a series of concentrations of soluble human LIFR or OSMR in a final volume of 150 μl blocking buffer were then added to the wells and the incubation was continued for another 1 hour. After washing with 250 μl of washing buffer 3 times, the wells were then incubated with 150 μl of polyclonal anti-hLIFR or anti-hOSMR in blocking buffer for 1 hour.

LIFR:gp130 receptor complex on human retinal Müller cells, sequence (P42702 45-1097, one chain of several): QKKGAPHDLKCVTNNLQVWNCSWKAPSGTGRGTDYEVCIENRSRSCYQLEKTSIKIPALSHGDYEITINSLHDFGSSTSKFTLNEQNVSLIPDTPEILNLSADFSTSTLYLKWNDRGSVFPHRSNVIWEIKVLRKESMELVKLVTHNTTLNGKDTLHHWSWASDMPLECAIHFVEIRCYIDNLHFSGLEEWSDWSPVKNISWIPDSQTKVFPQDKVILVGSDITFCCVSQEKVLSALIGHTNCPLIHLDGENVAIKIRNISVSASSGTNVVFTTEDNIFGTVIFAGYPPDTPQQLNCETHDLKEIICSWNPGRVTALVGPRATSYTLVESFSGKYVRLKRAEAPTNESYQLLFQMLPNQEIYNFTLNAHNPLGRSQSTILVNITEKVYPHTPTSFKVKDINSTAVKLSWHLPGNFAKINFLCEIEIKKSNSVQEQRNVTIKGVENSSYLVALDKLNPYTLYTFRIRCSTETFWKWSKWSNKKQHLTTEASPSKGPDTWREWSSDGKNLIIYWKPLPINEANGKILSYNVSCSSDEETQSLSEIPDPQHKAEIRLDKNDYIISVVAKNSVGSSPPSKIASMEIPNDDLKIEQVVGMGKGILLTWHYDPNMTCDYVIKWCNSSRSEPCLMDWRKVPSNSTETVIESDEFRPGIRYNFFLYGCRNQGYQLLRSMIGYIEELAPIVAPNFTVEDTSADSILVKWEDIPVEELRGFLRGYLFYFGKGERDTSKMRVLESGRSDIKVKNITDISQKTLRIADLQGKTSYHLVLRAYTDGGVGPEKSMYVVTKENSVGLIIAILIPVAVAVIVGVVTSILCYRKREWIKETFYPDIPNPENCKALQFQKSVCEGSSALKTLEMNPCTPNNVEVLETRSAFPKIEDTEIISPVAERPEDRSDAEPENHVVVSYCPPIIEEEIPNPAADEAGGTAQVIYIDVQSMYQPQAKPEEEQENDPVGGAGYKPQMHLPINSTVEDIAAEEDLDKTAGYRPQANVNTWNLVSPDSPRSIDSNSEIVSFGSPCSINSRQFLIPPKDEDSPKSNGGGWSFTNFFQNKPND

B1: OSM-M1 (OSM with BC loop truncated from 12 to 7 amino acids) (ligand)
chain: AAIGSCSKEYRVLLGQLQKQTDLMQDTSRLLDPYIRIQGLDVPKLREHCRERPGAFPSEETLRGLGRRGFLQTLNATLGCVLHRLADLEQRLGAPSGLNIEDLEKLQMARPNILGLRNNIYCMAQLLDNSDTAEPTKAGAGASQPPTPTPASDAFQRKLEGCRFLHGYHRFMHSVGRVFSKWGESPN
notes: Made from the 'AGA' modified OSM template; lacks the thrombin site; not shown: N-terminal FLAG tag left after thrombin removal of GST
concentration needed for receptor activation, against native OSM [1]: 3 fold lower concentration
concentration needed for receptor activation, against native OSM [2]: 3 fold lower concentration
Kd [3]: 10.1 nM

B4: OSM-WT ('AGA' modified human Oncostatin M, referred to as wild-type OSM) (ligand)
chain: AAIGSCSKEYRVLLGQLQKQTDLMQDTSRLLDPYIRIQGLDVPKLREHCRERPGAFPSEETLRGLGRRGFLQTLNATLGCVLHRLADLEQRLPKAQDLERSGLNIEDLEKLQMARPNILGLRNNIYCMAQLLDNSDTAEPTKAGAGASQPPTPTPASDAFQRKLEGCRFLHGYHRFMHSVGRVFSKWGESPN
notes: also called hOSM with AGA modification; not shown: N-terminal FLAG tag left after thrombin removal of GST
Kd [3]: 60 nM

Now those with a lower Kd [3], led by results:

concentration needed for receptor activation, against native OSM [1]: 3 fold lower concentration
concentration needed for receptor activation, against native OSM [2]: 3 fold lower concentration
Kd [3]: 8.75 nM
B3: OSM-M2 (OSM with BC loop truncated from 12 to 4 amino acids) (ligand)
chain: AAIGSCSKEYRVLLGQLQKQTDLMQDTSRLLDPYIRIQGLDVPKLREHCRERPGAFPSEETLRGLGRRGFLQTLNATLGCVLHRLADLEQRLGGGNIEDLEKLQMARPNILGLRNNIYCMAQLLDNSDTAEPTKAGAGASQPPTPTPASDAFQRKLEGCRFLHGYHRFMHSVGRVFSKWGESPN
notes: as for B1

Kd [3]: 8.58 nM
B2: human leukemia inhibitory factor (LIF) (ligand)
chain: not shown
notes: Purified recombinant protein; also called hLIF
